Positions count from the first letter of the chain named. In names and notes the source's numbering stands.
Legend:
[1] = system: Mouse bEnd.3 endothelial cells; test: Phosphatidylserine induction by hydrogen peroxide; type: cell-based
Method: Mouse bEnd.3 endothelial cells were seeded at an initial density of 50,000 cells/well. Twenty-fours later cells were incubated with increasing concentrations of H2O2 (from 10 μM to 500 μM) for 1 hour at 37° C. or left untreated. At the end of the incubation, cells were washed 3 times with PBS containing 0.2% gelatin and fixed with 0.25% glutaraldehyde. Identical wells were either stained with anti-PS IgM or trypsinized and evaluated for viability by the Trypan Blue exclusion test. For the anti-PS staining, after blocking with 2% gelatin for 10 min., cells were incubated with 2 μg/ml of anti-PS antibody, followed by detection with anti-mouse IgM-HRP conjugate.

[2] = system: bEnd 3 cells; test: Cell bound coagulation assay on stimulated bEnd 3 endothelial cells (factor Xa generation); type: cell-based, murine
[3] = system: tissue factor on the surface of HUVEC cells; test: FACS analysis of tissue factor expression on HUVEC; type: cell-based, human; conditions: TNFα 500 U/ml, LPS 10 μg/ml, VEGF 1 nM; 6 h
Method: To analyze tissue factor expression on the surface of endothelial cells, HUVEC cells were incubated with TNFα (500 U/ml), LPS (10 μg/ml) or vascular endothelial growth factor (VEGF, 1 nM) alone or in combination for 6 h at 37°. Cells were then detached and stained for surface expression of human tissue factor with a sheep-anti-human tissue factor antibody (Haemochrom, Essen, Germany) and an appropriate FITC-conjugated secondary antibody. Fluorescent cells were detected on a flow cytometer (Becton Dickinson, San Jose, Calif.).

[4] = system: Mouse endothelial cells; test: TNFα, cell based two stage coagulation assay
Method: Mouse endothelial cells were seeded in 48 well tissue culture plates and allowed to adhere overnight. Cells were stimulated with TNFα at the following concentrations: 500 U/ml 100 U/ml; 20 U/ml; 4 U/ml; 0.8 U/ml 0.16 U/ml; and with medium only.
Endothelial cells were also tested for coagulant activity in a cell based two stage coagulation assay. After incubation with TNFα, cells were washed and incubated with coagulation factor mix (0.5 μg/ml factor VIIa in a mix containing 2.8 μg/ml factor IX, 3.4 μg/ml factor X, 50 μM phospholipids in calcium buffer). The supernatant of wells was transferred into a 96 well ELISA plate. Substrate S2765 was added and Factor Xa generation measured.

[5] = system: A20 lymphoma cells; test: In vitro coagulation assay on A20 cells with B21-2/10H10 capture antibody; type: cell-based, mouse; conditions: for coagulation times versus tTF219 and Factor VIIa at the same concentrations: Factor VIIa at 1 nM or greater; for concentration at which plasma coagulated in 50 seconds: bound via B21-2/10H10 to A20 cells
[6] = system: HT29 (human colorectal carcinoma) xenograft; test: HT29 xenograft necrosis after tTF constructs with Factor VIIa; design: species or system BALB/c nu/nu mice; conditions: mouse, in vivo, iv
[7] = system: factor X to Xa conversion; test: Factor Xa production assay on A20 cells; type: cell-based; conditions: Factors II, VII and IX present
[8] = molecular target: T1, recombinant human VEGF (VEGF165) (human, UniProt P15692-4 27-191, biotinylated in the capture and competition ELISAs); test: capture ELISA, antibody-coated wells, biotinylated VEGF titrated
T1 construct: also called free VEGF; VEGF-biotin
T1 sequence (P15692 other isoform, or with tags, fused parts or gaps limits assumed): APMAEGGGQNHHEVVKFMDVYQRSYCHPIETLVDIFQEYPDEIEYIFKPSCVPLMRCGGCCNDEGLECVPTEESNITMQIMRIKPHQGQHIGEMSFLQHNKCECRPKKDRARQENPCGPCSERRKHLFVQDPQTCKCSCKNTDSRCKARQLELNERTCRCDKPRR

[9] = molecular target: T2, VEGF:Flk-1 complex (human; mouse, UniProt P15692 27-191; P35918 20-762, biotinylated); test: capture ELISA, antibody-coated wells, soluble VEGF:sFlk-1-biotin titrated
T2 construct: Formed overnight at 4 C at a molar ratio of sFlk-1 to VEGF of 2.5:1; also called VEGF:receptor complex; VEGF:sFlk-1
T2 sequence (P15692 other isoform, or with tags, fused parts or gaps limits assumed, chain 1 of 2): as the sequence (P15692 other isoform, or with tags, fused parts or gaps limits assumed) above
T2 sequence (P35918 20-762 limits assumed, chain 2 of 2): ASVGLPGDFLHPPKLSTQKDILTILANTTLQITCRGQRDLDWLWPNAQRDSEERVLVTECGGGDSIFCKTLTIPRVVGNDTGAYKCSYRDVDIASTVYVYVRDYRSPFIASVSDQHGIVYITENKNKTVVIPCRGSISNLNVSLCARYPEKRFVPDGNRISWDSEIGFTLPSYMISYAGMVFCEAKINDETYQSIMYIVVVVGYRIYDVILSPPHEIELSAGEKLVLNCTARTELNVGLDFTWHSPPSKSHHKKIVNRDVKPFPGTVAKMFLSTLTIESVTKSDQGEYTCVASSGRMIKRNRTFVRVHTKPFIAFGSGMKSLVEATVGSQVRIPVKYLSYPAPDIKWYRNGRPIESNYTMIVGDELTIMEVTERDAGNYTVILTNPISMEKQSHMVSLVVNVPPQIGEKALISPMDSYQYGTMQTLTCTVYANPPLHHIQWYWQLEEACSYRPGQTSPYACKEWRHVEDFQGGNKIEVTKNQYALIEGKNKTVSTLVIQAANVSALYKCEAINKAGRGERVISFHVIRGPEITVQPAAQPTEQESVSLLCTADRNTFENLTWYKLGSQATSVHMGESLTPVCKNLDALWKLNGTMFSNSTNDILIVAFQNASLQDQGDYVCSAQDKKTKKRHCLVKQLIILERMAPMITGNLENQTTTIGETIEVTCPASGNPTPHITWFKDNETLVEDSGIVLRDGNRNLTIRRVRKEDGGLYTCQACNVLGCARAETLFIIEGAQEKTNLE

[10] = molecular target: T1, recombinant human VEGF (VEGF165); test: competition ELISA, 1 nM VEGF on VEGFR1 (Flt-1/Fc) wells, 100 fold molar excess of 2C3
[11] = molecular target: T1, recombinant human VEGF (VEGF165); test: competition ELISA, 1 nM VEGF on VEGFR1 (Flt-1/Fc) wells, 1000 fold molar excess of 2C3

`OO` [H2O2] was tested, and the “cells with PS detected at the cell surface” value ([1]; concentrations as low as 20 μM) was “about 50%” and the cell viability ([1]; low levels of H2O2 (lower than 100 μM), identical to untreated) was 95%.

TNFα was tested, and the “Factor Xa generation” value ([2]; stimulation with TNFα (500 U/ml), then incubation with labelled agent (label TNFα = medium only), 0.5 μg/ml factor VIIa) was 0.35 nkatS2222, the “Factor Xa generation due to Factor VIIa production” value ([2]; stimulation with TNFα (label TNFα = medium only), 2 μg/ml factor VII and 0.01 μg/ml factor VIIa, factor VII-only values subtracted) was 1.23 nkatS2222 and the “tissue factor expression on the surface of endothelial cells” value [3] was “upregulated”. For the same molecule, the “fold lower dose for coagulant effect than for VCAM-1 upregulation” value [4] was 125 fold and the “TNFα at which an increase in comparison to the negative control could be detected” value ([4]; coagulation assay) was 0.16 U/ml.

For VEGF, the “tissue factor expression on the surface of endothelial cells” value [3] was “upregulated”.

B1: tTF219 (G164A): tTF219 with amino acid 164 (Gly) replaced by Ala (protein)
chain: GSGTTNTVAAYNLTWKSTNFKTILEWEPKPVNQVYTVQISTKSGDWKSKCFYTTDTECDLTDEIVKDVKQTYLARVFSYPAGNVESTGSAGEPLYENSPEFTPYLETNLGQPTIQSFEQVGTKVNVTVEDERTLVRRNNTFLSLRDVFGKDLIYTLYYWKSSSSAKKTAKTNTNEFLIDVDKGENYCFSVQAVIPSRTVNRKSTDSPVECMGQEKGEFRE
With B1 the “coagulation times versus tTF219 and Factor VIIa at the same concentrations” value [5] was “only marginally slower coagulation times” and the “necrosis, average area as percentage of total tumor area” value [6] was “some necrosis”.

B2: tTF219 (W158R) (protein)
chain: B1 chain with W159R, A165G
B2 was tested, and the “coagulation times versus tTF219 and Factor VIIa at the same concentrations” value [5] was “only marginally slower coagulation times”.

B3: IgG-H6-N′-cys-tTF219: one molecule of IgG linked via SMPT to one or two molecules of H6-N′-cys-tTF219 (conjugate)
chain: HHHHHHAMALVPRGSCGTTNTVAAYNLTWKSTNFKTILEWEPKPVNQVYTVQISTKSGDWKSKCFYTTDTECDLTDEIVKDVKQTYLARVFSYPAGNVESTGSAGEPLYENSPEFTPYLETNLGQPTIQSFEQVGTKVNVTVEDERTLVRRNNTFLSLRDVFGKDLIYTLYYWKSSSSGKKTAKTNTNEFLIDVDKGENYCFSVQAVIPSRTVNRKSTDSPVECMGQEKGEFRE
modifications: left off: large carriers
With B3 the “fold less active at inducing coagulation of plasma than tTF219 / unconjugated or monomeric form” value [5] was 5 fold, the “concentration at which plasma coagulated in 50 seconds” value (from here on “concentration … in 50 seconds”) [5] was 5 nM and the “activity at inducing Xa formation relative to H6-N′-cys-tTF219 (fold less active)” value [7] was 2 fold.

B4: Fab′-H6-N′-cys-tTF219: Fab′ fragment disulfide-linked to H6-N′-cys-tTF219 (conjugate)
chain: B3 chain
modifications: left off: another chain or arm of the molecule; large carriers
For B4, the “activity at inducing Xa formation relative to H6-N′-cys-tTF219 (fold less active)” value [7] was “as active as”.

B5: H6-tTF219-cys-C′: tTF219 with (His)6 tag and a Cys after amino acid 219 (protein)
chain: HHHHHHAMALVPRGSGTTNTVAAYNLTWKSTNFKTILEWEPKPVNQVYTVQISTKSGDWKSKCFYTTDTECDLTDEIVKVKQTYLARVFSYPAGNVESTGSAGEPLYENSPEFTPYLETNLGQPTIQSFEQVGTKVNVTVEDRTLVRRNNTFLSLRDVFGKDLIYTLYYWKSSSSGKKTAKTNTNEFLIDVDKGENYCFSVQAVIPSRTVNRKSTDSPVECMGQEKGEFREC
For B5, the “concentration … in 50 seconds” value [5] was 3 nM.

B6: Factor VIIa: recombinant human Factor VIIa (protein)
chain: ANAFLEELRPGSLERECKEEQCSFEEAREIFKDAERTKLFWISYSDGDQCASSPCQNGGSCKDQLQSYICFCLPAFEGRNCETHKDDQLICVNENGGCEQYCSDHTGTKRSCRCHEGYSLLADGVSCTPTVEYPCGKIPILEKRNASKPQGRIVGGKVCPKGECPWQVLLLVNGAQLCGGTLINTIWVVSAAHCFDKIKNWRNLIAVLGEHDLSEHDGDEQSRRVAQVIIPSTYVPGTTNHDIALLRLHQPVVLTDHVVPLCLPERTFSERTLAFVRFSLVSGWGQLLDRGATALELMVLNVPRLMTQDCLQQSRKVGDSPNITEYMFCAGYSDGSKDSCKGDSGGPHATHYRGTWYLTGIVSWGQGCATVGHFGVYTRVSQYIEWLQKLMRSEPRPGVLLRAPFP
B6 was tested, and the “necrosis, average area as percentage of total tumor area” value [6] was “some necrosis”.

B7: anti-VEGF antibody 2C3 (antibody, V domains shown)
VH: QVQLQESGPELVKPGASVKMSCKASGYTFTSYVFHWVKQKPGQGLEWIGYINPYNDVTKYNEKFKGKATLTSDKSSSTAYMELSSLTSEDSAVYYCASYYGSSYGYYAMDDWGQGTTVTVSS
VL: DIQLTQSPASLSVSAGEKVTMSCKSSQSLLNSGNQKNYLAWYQQKPGQPPKLLIHGASTRESGVPDRFTGSGSGTDFTLTISSVQAEDLAVYYCQNDYSYPLTFGAGTKLELKR
B7 was tested, and the EC50 [8] was 1 nM, the EC50 [9] was 150 nM and the “percent of VEGF bound to VEGFR1-coated wells relative to no 2C3” value [10] was 92%. The “percent of VEGF bound to VEGFR1-coated wells relative to no 2C3” value [11] was 105%.

B8: H6-tTF220-cys-C′: tTF with Ile-Cys after amino acid 219, (His)6 tag (protein)
chain: HHHHHHAMALVPRGSGTTNTVAAYNLTWKSTNFKTILEWEPKPVNQVYTVQISTKSGDWKSKCFYTTDTECDLTDEIVKDVKQTYLARVFSYPAGNVESTGSAGEPLYENSPEFTPYLETNLGQPTIQSFEQVGTKVNVTVEDERTLVRRNNTFLSLRDVFGKDLIYTLYYWKSSSSGKKTAKTNTNEFLIDVDKGENYCFSVQAVIPSRTVNRKSTDSPVECMGQEKGEFRE
With B8 the “concentration … in 50 seconds” value [5] was 0.5 nM.

B9: H6-tTF221-cys-C′: tTF with Ile-Phe-Cys after amino acid 219, (His)6 tag (protein)
chain: B8 chain
In the case of B9, the “concentration … in 50 seconds” value [5] is reported as 0.5 nM and the “concentration … in 50 seconds” value ([5]; listed as H6-tTF221-cys-C′ monomer) is reported as 1 nM.

B10: H6-tTF221-cys-C′ dimer: chemically conjugated disulfide dimer of H6-tTF221-cys-C′ (protein)
chain: B8 chain
With B10 the “fold less active at inducing coagulation of plasma than tTF219 / unconjugated or monomeric form” value [5] was 4 fold.
